In publication PMC10030653, “ClpC2 protects mycobacteria against a natural antibiotic targeting ClpC1-dependent protein degradation” (Communications Biology, 2023) one finds stoichiometry N data, which are given here for one substance.

The target of this experiment is Mycobacterium tuberculosis ClpC2 (full length, wild type) (Mycobacterium tuberculosis). Description: SEC. A general note: SEC sorts molecules by how far they enter the pores of the column.

In the case of “Mycobacterium tuberculosis ClpC2 (full length, wild type) (natural protein)”, the stoichiometry N (in general, the number of molecules, sites or subunits per partner or assembly) worked out at 2.
